Results: article PMC4794606 (Molecules and Cells, 2016)

Assays:
[1] = biological target: full length human extracellular superoxide dismutase (residues 1-240), (His)6-FLAG-PreScission site fusion (human) (UniProt P08294); assay: SEC
[2] = biological target: the molecule itself; assay: SEC

| stoichiometry N [1] | Molecule | stoichiometry N [2] |
| --- | --- | --- |
| 8 | full length human extracellular superoxide dismutase (residues 1-240), (His)6-FLAG-PreScission site fusion (from UniProt P08294 19-240) (enzyme) |  |
|  | truncated/mature human extracellular superoxide dismutase (residues 19-240), (His)6-FLAG-PreScission site fusion (enzyme, UniProt P08294 19-240, looked up, N-glycosylated at Asn107) WTGEDSAEPNSDSAEWIRDMYAKVTEIWQEVMQRRDDDGALHAACQVQPSATLDAAQPRVTGVVLFRQLAPRAKLDAFFALEGFPTEPNSSSRAIHVHQFGDLSQGCESTGPHYNPLAVPHPQHPGDFGNFAVRDGSLWRYRAGLAASLAGPHSIVGRAVVVHAGEDDLGRGGNQASVENGNAGRRLACCVVGVCGPGLWERQAREHSERKKRRRESECKAA | 8 |
